B1: ZNF449 (parent)
chain: EPHKCPECGKRFLRSSDLYRHQRL

Variants of: B1
Assay: protein stability index of a GFP-peptide fusion (GPS, HEK-293T) (PSI 1-6); higher = more stable
Settings: c terminus: a fixed tail appended
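Note: lentivirally expressed fusions sorted by FACS into six bins by GFP to DsRed ratio, PSI derived from sequencing read proportions per bin multiplied by bin number.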

Variant	protein stability index
EPHKCPECGKRFLRSSDLMRHQRL	3.65
EPHKCPECGKRFLRSSDLQRHQRL	3.84
EPHKCPECGKRFLRSSDLNRHQRL	3.4
EPHKCPECGKRFLRSSDLYPHQRL	2.88
EPHKCPECGKRFLRSSDLYFHQRL	3.42
EPHKCPECGKRFLRSSDLYSHQRL	4.2
EPHKCPECGKRFLRSSDLYIHQRL	3.56
EPHKCPECGKRFLRSSDLYDHQRL	4.5
EPHKCPECGKRFLRSSDLYAHQRL	4.66
EPHKCPECGKRFLRSSDLYLHQRL	3.55
EPHKCPECGKRFLRSSDLYQHQRL	4.29
EPHKCPECGKRFLRSSDLYEHQRL	4.63
EPHKCPECGKRFLRSSDLYMHQRL	3.83
EPHKCPECGKRFLRSSDLYCHQRL	3.69
EPHKCPECGKRFLRSSDLYHHQRL	4.14
EPHKCPECGKRFLRSSDLYNHQRL	4.21
EPHKCPECGKRFLRSSDLYGHQRL	3.21
EPHKCPECGKRFLRSSDLYKHQRL	4.43
EPHKCPECGKRFLRSIDLYRHQRL	3.26
EPHKCPECGKRFLRSLDLYRHQRL	2.72
EPHKCPECGKRFLRSRDLYRHQRL	3.52
EPHKCPECGKRFLRSEDLYRHQRL	4.99
EPHKCPECGKRFLRSYDLYRHQRL	3.05
EPHKCPECGKRFLRSWDLYRHQRL	2.66

Variant	protein stability index
EPHKCPECGKRFLRSHDLYRHQRL	3.55
EPHKCPECGKRFLRSDDLYRHQRL	4.06
EPHKCPECGKRFLRSCDLYRHQRL	3.62
EPHKCPECGKRFLRSPDLYRHQRL	2.99
EPHKCPECGKRFLRSQDLYRHQRL	4.27
EPHKCPECGKRFLRSKDLYRHQRL	3.81
EPHKCPECGKRFLRSNDLYRHQRL	3.7
EPHKCPECGKRFLRSTDLYRHQRL	3.94
EPHKCPECGKRFLRSFDLYRHQRL	2.09
EPHKCPECGKRFLRSVDLYRHQRL	3.81
EPHKCPECGKRFLRSGDLYRHQRL	3.54
EPHKCPECGKRFLRSADLYRHQRL	3.82
EPHKCPECGKRFLRSMDLYRHQRL	3.4
EPHKCPECGKRFDRSSDLYRHQRL	4.82
EPHKCPECGKRFVRSSDLYRHQRL	4.32
EPHKCPECGKRFWRSSDLYRHQRL	3.55
EPHKCPECGKRFYRSSDLYRHQRL	4.09
EPHKCPECGKRFMRSSDLYRHQRL	4.48
EPHKCPECGKRFCRSSDLYRHQRL	4.05
EPHKCPECGKRFQRSSDLYRHQRL	4.66
EPHKCPECGKRFGRSSDLYRHQRL	3.88
EPHKCPECGKRFIRSSDLYRHQRL	3.5
EPHKCPECGKRFARSSDLYRHQRL	4
EPHKCPECGKRFFRSSDLYRHQRL	3.35

Variant	protein stability index
EPHKCPECGKRFRRSSDLYRHQRL	3.99
EPHKCPECGKRFSRSSDLYRHQRL	3.92
EPHKCPECGKRFERSSDLYRHQRL	4.78
EPHKCPECGKRFNRSSDLYRHQRL	4.08
EPHKCPECGKRFPRSSDLYRHQRL	3.74
EPHKCPECGKRFHRSSDLYRHQRL	3.85
EPHKCPECGKRFKRSSDLYRHQRL	4.5
EPHKCPECGKRFTRSSDLYRHQRL	4.46
EPHKCPECGKRFLRSSNLYRHQRL	2.22
EPHKCPECGKRFLRSSILYRHQRL	2.04
EPHKCPECGKRFLRSSPLYRHQRL	2.38
EPHKCPECGKRFLRSSQLYRHQRL	2.59
EPHKCPECGKRFLRSSHLYRHQRL	2.87
EPHKCPECGKRFLRSSGLYRHQRL	2.58
EPHKCPECGKRFLRSSKLYRHQRL	2.33
EPHKCPECGKRFLRSSRLYRHQRL	2.34
EPHKCPECGKRFLRSSELYRHQRL	3.82
EPHKCPECGKRFLRSSTLYRHQRL	2.36
EPHKCPECGKRFLRSSYLYRHQRL	2.21
EPHKCPECGKRFLRSSWLYRHQRL	1.72
EPHKCPECGKRFLRSSMLYRHQRL	2.35
EPHKCPECGKRFLRSSCLYRHQRL	2.66
EPHKCPECGKRFLRSSALYRHQRL	2.32
EPHKCPECGKRFLRSSVLYRHQRL	1.69

Variant	protein stability index
EPHKCPECGKRFLRSSSLYRHQRL	2.61
EPHKCPECGKRFLRSSLLYRHQRL	2.81
EPHKCPECGKRFLRSSFLYRHQRL	1.68
EPHKCPECGKRFLRCSDLYRHQRL	3.42
EPHKCPECGKRFLRLSDLYRHQRL	3.86
EPHKCPECGKRFLRYSDLYRHQRL	4.03
EPHKCPECGKRFLRWSDLYRHQRL	3.52
EPHKCPECGKRFLRKSDLYRHQRL	4.27
EPHKCPECGKRFLRTSDLYRHQRL	3.9
EPHKCPECGKRFLRMSDLYRHQRL	3.98
EPHKCPECGKRFLRHSDLYRHQRL	3.64
EPHKCPECGKRFLRFSDLYRHQRL	3.51
EPHKCPECGKRFLRGSDLYRHQRL	3.53
EPHKCPECGKRFLRISDLYRHQRL	3.27
EPHKCPECGKRFLRESDLYRHQRL	4.54
EPHKCPECGKRFLRRSDLYRHQRL	3.53
EPHKCPECGKRFLRQSDLYRHQRL	4.11
EPHKCPECGKRFLRPSDLYRHQRL	3.25
EPHKCPECGKRFLRDSDLYRHQRL	3.81
EPHKCPECGKRFLRASDLYRHQRL	4.16
EPHKCPECGKRFLRNSDLYRHQRL	3.51
EPHKCPECGKRFLRVSDLYRHQRL	3.58
